Measurements published in the RNAGym collection of RNA variant scans (doi:10.1021/acssynbio.7b00057).

B1: Pistol ribozyme (parent)
chain: GGGUCGUUGUUCCAUAAUCGCGUGGAUAUGGCACGCAAGUUUCUACCGGGCACCGUAAAUGUCCGACUGGAGCCGUUCGGGCGGCUAUAAACAGACCUCAGGCCCGAAGCGUGGCGGCACCUGCCGCCGGUGGUAAAAAAGAUCGGAAGAGCACACGUCU

Variants of: B1
Experiment: aptazyme ON/OFF ratio, guanine; higher = stronger switching; co-transcriptional cleavage with and without guanine

Row | Variant | aptazyme ON/OFF ratio
1 | U7G U8C G9C U11G C12U C13A | 1.3
2 | U7G U8C G9C U11G C12U C13G | 1.33
3 | U7G U8C G9C U10G U11C C12G C13U | 1.19
4 | U7G U8C G9C U10G U11C C12G C13A | 1.29
5 | U7G U8C G9C U10G U11C C12G C13G | 1.15
6 | U7G U8C G9U U10A U11A C12G C13G | 1.16
7 | U7G U8C G9U U10A U11A C12G C13A | 1.07
8 | U7G U8C G9A U11G C12U | 1.3
9 | U7G U8C G9A U11G C12G | 1.14
10 | U7G U8C G9A U11G C12A | 1.1
11 | U7G U8C G9C U10G U11A C12U | 1.04
12 | U7G U8C G9C U10G U11A C12A | 1.28
13 | U7G U8C G9C U10G U11A C12G | 1.17
14 | U7G U8C G9C U10A C12G C13U | 1.09
15 | U7G U8C G9C U10A C12G C13G | 1.05
16 | U7G U8C G9C U10A C12G C13A | 1.06
17 | U7G U8C G9C U10A U11A C12A C13U | 1.11
18 | U7G U8C G9C U10A U11A C12A C13A | 1.12
19 | U7G U8C G9C U10A U11A C12A C13G | 1.09
20 | U7G U8C G9C U11A C12U | 1.23
21 | U7G U8C G9C U11A C12G | 1.2
22 | U7G U8C G9C U11A C12A | 1.19
23 | U7G U8C G9U U10A U11A | 4.34
24 | U7G U8C G9C U10C C12U C13U | 1.04

Row | Variant | aptazyme ON/OFF ratio
25 | U7G U8C G9C U10C C12U C13G | 1.13
26 | U7G U8C G9C U10C C12U C13A | 1.07
27 | U7G U8C G9U U10A C13U | 2.29
28 | U7G U8C G9U U10A C13G | 1.08
29 | U7G U8C G9U U10A C13A | 1.35
30 | U7G U8C G9C U10C U11C C12A | 1.05
31 | U7G U8C G9C U10C U11C C12U | 1.02
32 | U7G U8C G9C U10C U11C C12G | 1.06
33 | U7G U8C G9C U10C C12U | 1.16
34 | U7G U8C G9C U10C C12G | 1.1
35 | U7G U8C G9C U10C C12A | 1.13
36 | U7G U8C G9C U10G U11C | 1.15
37 | U7G U8C G9C U10G U11G | 1.17
38 | U7G U8C G9C U10G U11A | 1.11
39 | U7G U8C G9C U11C C13G | 1.05
40 | U7G U8C G9C U11C C13A | 1.46
41 | U7G U8C G9C U11C C13U | 1.38
42 | U7G U8C G9C U10G U11G C12U C13U | 1.12
43 | U7G U8C G9C U10G U11G C12U C13G | 1.09
44 | U7G U8C G9C U10G U11G C12U C13A | 1.09
45 | U7G U8C G9C U10C U11C C12A C13A | 1.05
46 | U7G U8C G9C U10C U11C C12A C13G | 1.21
47 | U7G U8C G9C U10C U11C C12A C13U | 1.05
48 | U7G U8C G9C U11A C12A C13U | 1.13

Row | Variant | aptazyme ON/OFF ratio
49 | U7G U8C G9C U11A C12A C13G | 1.14
50 | U7G U8C G9C U11A C12A C13A | 1.11
51 | U7G U8C G9A U11G | 1.3
52 | U7G U8C G9A U11C | 1.4
53 | U7G U8C G9A U11C C12A C13A | 1.11
54 | U7G U8C G9A U11C C12A C13U | 1.5
55 | U7G U8C G9A U11C C12A C13G | 1.17
56 | U7G U8C G9C U10C U11A C12A | 1.06
57 | U7G U8C G9C U10C U11A C12U | 1.06
58 | U7G U8C G9C U10C U11A C12G | 1.11
59 | U7G U8C G9C U10C U11G C12U C13G | 1.08
60 | U7G U8C G9C U10C U11G C12U C13U | 1.08
61 | U7G U8C G9C U10C U11G C12U C13A | 1.08
62 | U7G U8C G9U U10A C12U | 2.85
63 | U7G U8C G9U U10A C12G | 1.77
64 | U7G U8C G9U U10A C12A | 1.88
65 | U7G U8C G9C U10A C12G | 1.25
66 | U7G U8C G9C U10A C12U | 1.06
67 | U7G U8C G9C U10A C12A | 1.09
68 | U7G U8C G9C U10A U11G C12A C13G | 1.12
69 | U7G U8C G9C U10A U11G C12A C13U | 1.11
70 | U7G U8C G9C U10A U11G C12A C13A | 1.1
71 | U7G U8C G9C U11A C12G C13U | 1.1
72 | U7G U8C G9C U11A C12G C13A | 1.13

Row | Variant | aptazyme ON/OFF ratio
73 | U7G U8C G9C U11A C12G C13G | 1.16
74 | U7G U8C G9U U10A U11A C12A C13A | 1.29
75 | U7G U8C G9U U10A U11A C12A C13U | 1.32
76 | U7G U8C G9U U10A U11A C12A C13G | 1.11
77 | U7G U8C G9C U10C U11A C12G C13U | 1.12
78 | U7G U8C G9C U10C U11A C12G C13G | 1.17
79 | U7G U8C G9C U10C U11A C12G C13A | 1.2
80 | U7G U8C G9C U10C U11C C12G C13A | 1.09
81 | U7G U8C G9C U10C U11C C12G C13G | 1.04
82 | U7G U8C G9C U10C U11C C12G C13U | 1.04
83 | U7G U8C G9A U11G C13G | 1.09
84 | U7G U8C G9A U11G C13A | 1.14
85 | U7G U8C G9A U11G C13U | 1.19
86 | U7G U8C G9C U10A U11A C12U C13A | 1.07
87 | U7G U8C G9C U10A U11A C12U C13G | 1.09
88 | U7G U8C G9C U10A U11A C12U C13U | 1.08
89 | U7G U8C G9C U10A U11A C12G C13A | 1.1
90 | U7G U8C G9C U10A U11A C12G C13G | 1.11
91 | U7G U8C G9C U10A U11A C12G C13U | 1.13
92 | U7G U8C G9A U11G C12G C13G | 1.08
93 | U7G U8C G9A U11G C12G C13A | 1.07
94 | U7G U8C G9A U11G C12G C13U | 1.05
95 | U7G U8C G9U C13A | 1.36
96 | U7G U8C G9U C13G | 1.04

Row | Variant | aptazyme ON/OFF ratio
97 | U7G U8C G9U C13U | 2.37
98 | U7G U8C G9C U10G U11C C13A | 1.15
99 | U7G U8C G9C U10G U11C C13G | 1.36
100 | U7G U8C G9C U10G U11C C13U | 1.34
101 | U7G U8C G9C U11G | 1.33
102 | U7G U8C G9C U11C | 1.87
103 | U7G U8C G9C U11A | 2.39
104 | U7G U8C G9C U10G | 1.17
105 | U7G U8C G9C U10A | 2.18
106 | U7G U8C G9C U10C | 1.92
107 | U7G U8C G9U C12G | 3.03
108 | U7G U8C G9U C12A | 1.35
109 | U7G U8C G9U C12U | 4.27
110 | U7G U8C G9C U10G U11C C12A C13A | 1.34
111 | U7G U8C G9C U10G U11C C12A C13G | 1.18
112 | U7G U8C G9C U10G U11C C12A C13U | 1.36
113 | U7G U8C G9C U10C U11G | 1.05
114 | U7G U8C G9C U10C U11C | 1.05
115 | U7G U8C G9C U10C U11A | 1.39
116 | U7G U8C G9C C12G C13U | 1.09
117 | U7G U8C G9C C12G C13A | 1.13
118 | U7G U8C G9C C12G C13G | 1.12
119 | U7G U8C G9C C12U C13U | 1.21
120 | U7G U8C G9C C12U C13G | 1.12

Row | Variant | aptazyme ON/OFF ratio
121 | U7G U8C G9C C12U C13A | 1.1
122 | U7G U8C G9C U11G C13G | 1.17
123 | U7G U8C G9C U11G C13U | 1.25
124 | U7G U8C G9C U11G C13A | 1.24
125 | U7G U8C G9U C12G C13G | 1.32
126 | U7G U8C G9U C12G C13A | 1.18
127 | U7G U8C G9U C12G C13U | 1.32
128 | U7G U8C G9U U10A | 4.06
129 | U7G U8C G9C U10C U11C C12U C13A | 1.05
130 | U7G U8C G9C U10C U11C C12U C13G | 1.21
131 | U7G U8C G9C U10C U11C C12U C13U | 1.03
132 | U7G U8C G9C U10C U11G C13U | 1.07
133 | U7G U8C G9C U10C U11G C13G | 1.14
134 | U7G U8C G9C U10C U11G C13A | 1.07
135 | U7G U8C G9C U10C C12G C13U | 1.08
136 | U7G U8C G9C U10C C12G C13A | 1.14
137 | U7G U8C G9C U10C C12G C13G | 1.11
138 | U7G U8C G9C U11G C12G C13U | 1.1
139 | U7G U8C G9C U11G C12G C13A | 1.12
140 | U7G U8C G9C U11G C12G C13G | 1.12
141 | U7G U8C G9A U11A C12U C13G | 1.08
142 | U7G U8C G9A U11A C12U C13A | 1.09
143 | U7G U8C G9A U11A C12U C13U | 1.05
144 | U7G U8C G9C U10G U11C C12U C13A | 1.26

Row | Variant | aptazyme ON/OFF ratio
145 | U7G U8C G9C U10G U11C C12U C13U | 1.4
146 | U7G U8C G9C U10G U11C C12U C13G | 1.32
147 | U7G U8C G9C U10A U11C C12A C13G | 1.19
148 | U7G U8C G9C U10A U11C C12A C13U | 1.27
149 | U7G U8C G9C U10A U11C C12A C13A | 1.28
150 | U7G U8C G9U C12A C13A | 1.34
151 | U7G U8C G9U C12A C13G | 1.26
152 | U7G U8C G9U C12A C13U | 1.2
153 | U7G U8C G9C U10A U11A C12G | 1.19
154 | U7G U8C G9C U10A U11A C12U | 1.16
155 | U7G U8C G9C U10A U11A C12A | 1.19
156 | U7G U8C G9A U11C C12U C13U | 1.08
157 | U7G U8C G9A U11C C12U C13A | 1.15
158 | U7G U8C G9A U11C C12U C13G | 1.12
159 | U7G U8C G9C U10C U11A C12U C13U | 1.05
160 | U7G U8C G9C U10C U11A C12U C13A | 1.04
161 | U7G U8C G9C U10C U11A C12U C13G | 1.12
162 | U7G U8C G9A U11A C13U | 1.21
163 | U7G U8C G9A U11A C13G | 1.03
164 | U7G U8C G9A U11A C13A | 1.14
165 | U7G U8C G9C U10C C13A | 1.06
166 | U7G U8C G9C U10C C13U | 1.15
167 | U7G U8C G9C U10C C13G | 1.21
